Measured values from article PMC2939065, “Nephrocystin-1 Forms a Complex with Polycystin-1 via a Polyproline Motif/SH3 Domain Interaction and Regulates the Apoptotic Response in Mammals” (PLoS ONE, 2010).

T1: NPHP1-SH3 (15N-labelled SH3 domain of nephrocystin-1 for NMR and ITC) (human, UniProt O15259 147-212)
T1 construct: Nephrocystin-1 (NPHP1), human, SH3 domain, codons 147-212, expressed from pGEX-2T; 15N isotope label for NMR; also called 15N NPHP1-SH3
T1 sequence (looked up): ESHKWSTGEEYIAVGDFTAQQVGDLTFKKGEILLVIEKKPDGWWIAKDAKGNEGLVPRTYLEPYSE

T2: NPHP1-SH3 (15N-labelled SH3 domain of nephrocystin-1 for NMR and ITC) (Homo sapiens (Human), UniProt O15259)
T2 chain: T1 sequence (looked up)

B1: peptPP2 (peptide)
peptide: Ac-GLRPALPSRLARAS-NH2
notes: stretch of the PC-1 C-tail containing PP2 (P4267ALPSR4272), aminoacids 4264-4277; also called PP2 peptide; source: synthetic peptide, bought: CASLO (Lyngby, Denmark)

Key:
[1] = molecular target: T1, NPHP1-SH3 (15N-labelled SH3 domain of …); test: NMR titration; 1H-15N HSQC of 15N NPHP1-SH3 (0.3 mM) with added peptide (0, 0.5, 1, 1.5, 2, 3, 4 equivalents for peptPP2); fast exchange; settings: both partners purified
[2] = molecular target: T2, NPHP1-SH3 (15N-labelled SH3 domain of …); test: NMR titration (1H-15N HSQC)

Row | Binder | Kd [1] | binding result [2]
1 | B1 | 300 ± 20 µM | –
2 | Ac-RGSKVSPDVPPPS-NH2 (protein) [peptPP1] | – | no binding
